Experimental data as given in patent US6436636B1, “Methods for identifying pharmacologicals for the treatment of heart failure” (Wake Forest University, priority 1995, dated 2002).

Assays:
Test in all cases: UV-crosslinking of recombinant p37AUF1 to radiolabeled RNA
Format in all cases: binding
Conditions in all cases: UV irradiation, Rnase A+T1 digestion, SDS-PAGE, autoradiography
[1] = test system: rabbit β-globin (Rβ) RNA
Source text: (§1) FIG. 5 represents an autoradiogram showing UV-crosslinking of purified, recombinant p37AUF1 polypeptide to human β1-AR 3′UTR RNA. Autoradiogram of recombinant p37AUF1 UV-crosslinked to radiolabeled, in vitro transcribed human β1-AR 3′UTR RNA. Lane 1, β1-AR RNA in the absence of competitor RNA. Lanes 2 and 3, β1-AR RNA is the presence of 10-fold and 100-fold molar excess of unlabeled β1-AR RNA. Lane 4, β1-AR RNA in the presence of 100-fold molar excess of rabbit β-globin RNA (Rb). Lane 5, c-fos ARE only. Lane 6, rabbit β-globin RNA only.
(§2) To show AUF1 binds to the human β1-AR 3′UTR, radiolabeled RNA was incubated with purified, recombinant p37AUF1, subjected to UV irradiation, Rnase A+T1 digestion, SDS-PAGE, and autoradiography. Recombinant p37AUF1 polypeptide binds to the β1-AR 3′UTR and to the c-fos ARE but fails to bind to rabbit β-globin (Rβ) RNA (FIG. 5).
(§3) A 0.3M KC1 ribosomal salt wash (RSW) was produced from DDT1-MF2 cells using the method of Brewer and Ross, Methods in Enzyznology 181:202-209 (1990). UV-crosslinking was performed as described in Port et al., J. Biol. Chem. 267:24103-24108 (1992) Briefly, an aliquot of radiolabeled RNA (1-4×10^6 cpm) was added to a mixture containing 20 μl of RSW (˜5×10^6 cell equivalents/μl) from DDT1-MF2 cells, 5 μg of yeast tRNA, 4 mM dithiothreitol, 5 μg heparin, and 65 units of Rnasin™ in a total volume of 50 μl. […]

[2] = test system: c-fos ARE
Source text: as §1, §2, §3

[3] = test system: human β1-AR 3′UTR RNA
Source text: as §1, §2
A 919 bp cDNA fragment corresponding to the β1AR 3′ UTR was synthesized by PCR and subcloned into pcDNA3 (Invitrogen) utilizing the Xho I and Xba I restriction endonuclease sites. The resulting vector was linearized with Xba I, and in vitro transcription was performed as described in Port et al., J. Biol. Chem. 267:24103-24108 (1992). Briefly, radiolabeled RNA was synthesized using T7 DNA-directed RNA polymerase and [α-^32P]UTP (800 Ci/mmol, New England Nuclear) to produce uniformly labeled, 5′-capped RNA. […]

B1: p37AUF1: purified, recombinant p37AUF1 polypeptide (His6 fusion expressed in E. coli), A+U-rich element RNA-binding factor (protein)
chain: MSEEQFGGDGAAAAATAAVGGSAGEQEGAMVAATQGAAAAAGSGAGTGGGTASGGTEGGSAESEGAKIDASKNEEDEGKMFIGGLSWDTTKKDLKDYFSKFGEVVDCTLKLDPITGRSRGFGFVLFKESESVDKVMDQKEHKLNGKVIDPKRAKAMKTKEPVKKIFVGGLSPDTPEEKIREYFGGFGEVESIELPMDNKTNKRRGFCFITFKEEEPVKKIMEKKYHNVGLSKCEIKVAMSKEQYQQQQQWGSRGGFAGRARGRGGDQQSGYGKVSRRGGHQNSYKPY
modifications: left off: small tags and cut ends
Which “binding to rabbit β-globin (Rβ) RNA” value [1] does the source give for B1 here?
Its value is “fails to bind”.

And the “binding to c-fos ARE” value [2]?
The value was “binds”.

And the “binding to β1-AR 3′UTR” value [3]?
Its value is “binds”.
